The values below come from paper PMC7919418 (Genes & Development, 2021).

First the molecules themselves.
B1: Panx[263–541], recombinant, coexpressed in SFiNX[wild type] (domain or fragment)
chain: ASSQNESSKERKLRDTELDYVPVRPDEHFIRPIKFSNLIERRPPQVEFNTVNLSKADKRSLAVARAELVLEQIQQKANKEEPPEFHMVDTICKLPVNESFRNQDCFENPSPICNNMNVVYKFNSTPGTRIDLSKWGLETVPEATKRLLRLLGIDVARLKELQSTVKPSQRILKLKKEQLEQGLAPTEEQETATLYKNAATQTERRTATRDAGTQVRLESKLNGAFWQNPHFDPMNLTQHQSNVMLALQEIYQTLPSATMAVKLSRALAPALAIIKGRQP
B2: Nxf2[541–841], recombinant (domain or fragment)
chain: LPSEYVRAVKEVFPQLTTLDGVDLQTNPGQSLQKNFLCDTGAYELVGAFLENYLREFENDEFRHNLYKYYSENSIFTLTCNYNVVQNHQTPKILQRLSKYNRHARNLRNKDYSKASDGVFFGCTYIVEILLQLPRVTHDFHSLQTDVMHYNGKGAVIYVAGLLRDEPPSTRNGHGSKTDIGGVLLGFSRQFVVTFDEANLGLGKRARRLKIANERLHITNPSKTAIRNAFSVNFPDPSERQAEEDSLDVKDHKLLLFQEVTGLISTWVTSIVEEADWDFERALKLFIQKNADHEIPDLAFA
B3: His6-Ctp, recombinant, coexpressed in SFiNX complexes (natural protein)
chain: MSDRKAVIKNADMSEEMQQDAVDCATQALEKYNIEKDIAAYIKKEFDKKYNPTWHCIVGRNFGSYVTHETRHFIYFYLGQVAILLFKSG

Data set [1] has as its target B2. The data set can be described thus: SEC-MALS.
Data set [2] has as its target Drosophila melanogaster Ctp (residues 1–89), untagged, coexpressed with Panx peptides (Drosophila melanogaster, UniProt Q24117 1-89). The data set can be described thus: SEC-MALS.
Data set [3] has as its target Ctp expressed in isolation with a His6-SUMO tag (for ITC) (Drosophila melanogaster, UniProt Q24117 1-89). The data set can be described thus: ITC.
Data set [4] deals with Nxt1, recombinant (Drosophila melanogaster, UniProt Q9V3H8 1-133). The data set can be described thus: SEC-MALS.
Data set [5] concerns the molecule itself. The data set can be described thus: SEC-MALS.

As for B1, the binding result in data set [1] is “binds”. In the case of TLYKNAATQTERRTATRDAGTQVRLE [Panx peptide residues 455–480 (Panx1 + 2)], the “stoichiometry N” value in data set [2] was 1 Panx peptide per Ctp homodimer. TLYKNAATQTER [Panx peptide residues 455–466 (Panx1)]: the dissociation constant Kd in data set [3] was ~75 nM. For the same molecule, the “stoichiometry N” value in data set [2] was 2 Panx peptides per Ctp homodimer. Consider B2, for which the binding result in data set [4] is “binds”. On to RTATRDAGTQVRLE [Panx peptide residues 467–480 (Panx2)], for which, in data set [3], the Kd is ~140 nM. In addition, the “stoichiometry N” value in data set [2] was 2 Panx peptides per Ctp homodimer. Regarding B3, the “stoichiometry N” value in data set [5] worked out at 2.
